Data taken from US20200325212.

Experiments:
[1] = target: CTLA4-Fc MMP9 (MMP9-cleavable CTLA4-Fc mask; CTLA4-Fc_WT)
[2] = target: CTLA4-Fc Mxx9 (non-cleavable mask), P16410
[3] = target: T1, mLCN2-Fc (bivalent m-Lcn2 fused to human IgG1 Fc)
T1 chain: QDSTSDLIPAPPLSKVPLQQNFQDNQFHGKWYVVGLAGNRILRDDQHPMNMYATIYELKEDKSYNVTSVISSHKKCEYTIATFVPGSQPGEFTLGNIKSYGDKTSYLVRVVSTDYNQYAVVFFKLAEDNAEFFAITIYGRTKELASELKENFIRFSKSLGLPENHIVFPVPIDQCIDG

CTLA4-Fc MMP9 (MMP9-cleavable CTLA4-Fc mask; CTLA4-Fc_WT), sequence (chain, as listed by the source): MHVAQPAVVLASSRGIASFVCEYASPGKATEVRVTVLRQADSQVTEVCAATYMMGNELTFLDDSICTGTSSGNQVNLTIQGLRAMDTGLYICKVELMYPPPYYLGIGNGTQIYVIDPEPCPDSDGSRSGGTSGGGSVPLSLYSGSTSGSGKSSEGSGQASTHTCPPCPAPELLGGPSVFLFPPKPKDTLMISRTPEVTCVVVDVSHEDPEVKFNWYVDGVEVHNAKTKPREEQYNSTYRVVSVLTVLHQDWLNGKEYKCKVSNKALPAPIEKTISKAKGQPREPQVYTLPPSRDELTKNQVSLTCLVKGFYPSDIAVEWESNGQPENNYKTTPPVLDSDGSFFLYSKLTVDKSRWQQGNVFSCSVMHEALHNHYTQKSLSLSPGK
CTLA4-Fc Mxx9 (non-cleavable mask), P16410, sequence (P16410 whole entry, looked up, the tested form may be a part): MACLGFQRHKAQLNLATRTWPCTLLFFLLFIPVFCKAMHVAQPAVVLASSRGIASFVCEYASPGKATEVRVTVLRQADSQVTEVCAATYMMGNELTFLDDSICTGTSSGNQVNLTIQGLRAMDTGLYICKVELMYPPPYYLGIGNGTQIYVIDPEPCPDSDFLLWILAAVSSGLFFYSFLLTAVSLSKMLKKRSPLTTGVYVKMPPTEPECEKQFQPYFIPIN

B1: recombinant human MMP9 (ProSpecBio) (protein)
chain: APRQRQSTLVLFPGDLRTNLTDRQLAEEYLYRYGYTRVAEMRGESKSLGPALLLLQKQLSLPETGELDSATLKAMRTPRCGVPDLGRFQTFEGDLKWHHHNITYWIQNYSEDLPRAVIDDAFARAFALWSAVTPLTFTRVYSRDADIVIQFGVAEHGDGYPFDGKDGLLAHAFPPGPGIQGDAHFDDDELWSLGKGVVVPTRFGNADGAACHFPFIFEGRSYSACTTDGRSDGLPWCSTTANYDTDDRFGFCPSERLYTQDGNADGKPCQFPFIFQGQSYSACTTDGRSDGYRWCATTANYDRDKLFGFCPTRADSTVMGGNSAGELCVFPFTFLGKEYSTCTSEGRGDGRLWCATTSNFDSDKKWGFCPDQGYSLFLVAAHEFGHALGLDHSSVPEALMYPMYRFTEGPPLHKDDVNGIRHLYGPRPEPEPRPPTTTTPQPTAPPTVCPTGPPTVHPSERPTAGPTGPPSAGPTGPPTAGPSTATTVPLSPVDDACNVNIFDAIAEIGNQLYLFKDGKYWRFSEGRGSRPQGPFLIADKWPALPRKLDSVFEERLSKKLFFFSGRQVWVYTGASVLGPRRLDKLGLGADVAQVTGALRSGRGKMLLFSGRRLWRFDVKAQMVDPRSASEVDRMFPGVPLDTHDVFQYREKAYFCQDRFYWRVSSRSELNQVDQVGYVTYDILQCPED
- cleavage, SDS-PAGE [1]: Recombinant MMP9 was demonstrated to effectively cleave the CTLA4-MMP9-Fc mask
- intensity of the full-length band, time course of cleavage at 37 °C, SDS-PAGE [1]: At 2 h the intensity of the full-length band was ~50% of the 0 h timepoint
- cleavage, SDS-PAGE [2]: Addition of MMP9 had no effect on CTLA4-Fc Mxx9 bands.
- cleavage, SDS-PAGE [3]: but not the m-Lcn2-Fc
